Data: patent US20110293610A1 (published 2011)

T1: TNF-beta (human, UniProt P01374 35-205)
T1 construct: also called TNFβ; Tumour Necrosis Factor-beta
T1 sequence (looked up): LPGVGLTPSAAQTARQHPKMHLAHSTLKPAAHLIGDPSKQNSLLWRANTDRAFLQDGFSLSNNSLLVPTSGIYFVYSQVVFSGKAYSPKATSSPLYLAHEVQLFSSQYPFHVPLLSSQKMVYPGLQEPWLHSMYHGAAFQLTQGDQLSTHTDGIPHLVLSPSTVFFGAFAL


Columns and labels:
Assay in all cases: phage ELISA
TNF-beta = biological target: T1, TNF-beta
LIGHT = LIGHT (human, UniProt O43557 74-240, limits assumed)
TNF-alpha = biological target: T2, TNF-alpha (human, UniProt P01375 77-233)
T2 construct: also called TNFα; TNF-α

TRAIL = biological target: T3, TRAIL (human, UniProt P50591 114-281)
T3 construct: also called TNF-related apoptosis inducing ligand

[1] = biological target: T4, B Lymphocyte Stimulator, soluble form (human) (human, UniProt Q9Y275 134-285, biotinylated with NHS-biotin where used as biotinylated B Lymphocyte Stimulator)
T4 construct: Coated on plastic, captured on streptavidin plates, amine-coupled to a CM5 chip or free in solution, depending on the assay; also called BLyS; immobilized B Lymphocyte Stimulator

Sequence of LIGHT (O43557 74-240 limits assumed): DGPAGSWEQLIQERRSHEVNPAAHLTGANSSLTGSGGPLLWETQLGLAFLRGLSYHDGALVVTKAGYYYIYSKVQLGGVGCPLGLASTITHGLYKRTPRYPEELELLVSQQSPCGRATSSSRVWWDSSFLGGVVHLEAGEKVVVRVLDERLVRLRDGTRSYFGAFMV
T3 sequence (P50591 114-281 limits assumed): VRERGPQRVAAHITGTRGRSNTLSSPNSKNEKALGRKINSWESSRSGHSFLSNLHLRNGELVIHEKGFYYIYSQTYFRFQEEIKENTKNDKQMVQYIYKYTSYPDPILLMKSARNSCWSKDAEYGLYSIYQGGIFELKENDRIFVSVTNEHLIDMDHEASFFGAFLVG
T2 sequence (P01375 77-233 limits assumed): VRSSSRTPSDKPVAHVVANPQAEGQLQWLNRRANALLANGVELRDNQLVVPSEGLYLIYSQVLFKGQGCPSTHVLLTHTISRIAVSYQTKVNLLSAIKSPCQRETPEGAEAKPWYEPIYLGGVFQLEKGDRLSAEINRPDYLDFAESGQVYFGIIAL

Binder | binding result (TNF-beta) | binding result (LIGHT) | binding result (TNF-alpha) | binding result (TRAIL) | binding result [1]
I071B03 (scFv) scFv: QVQLQQSGAEVKKPGASVKVSCKASGYTFTKYTMHWVRQAPGQGPEWMGWINGGSGDTKYSRKFQGRVTITKDTSASAAYMELSSLGSEDTALYYCARATYDPLTGYSFDGFDIWGQGTMVTVSSGGGGSGGGGSGGGGSQSVLTQPASVSGSPGQSITISCTGTSSDVGGYNYVSWYQQHPGKAPKLMIYEGSKRPSGVSNRFSGSKSGNTASLTISGLQAEDEADYYCSSYTTRSTRVFGGGTKLTVLD | no binding | no binding | no binding | no binding | binds
I026C04 (scFv) scFv: QVQLVQSGAEVKKPGSSVKVSCRASGGSFNHAISWVRQAPGRGLEWMGGILPMYGTANYAQKFQGRVTITADKLTNTVYMDLSRLRYEDTAVYYCARELGLSIVGATTGALDMWGKGTLVTVSSGGGGSGGGGSGGGGSAQSVLTQPPSVSAAPGQKVTISCSGSSSNIGNNYVSWYQQIPGTAPKLLIYENNKRPSGIPDRFSGSKSGASATLDITGLQTGDEADYYCGTWHSSQVVFGGGTKLTVLG | no binding | no binding | no binding | no binding | binds
I025B06 (scFv) scFv: QVQLVQSGAEVKKPGSSVKVSCRASGGSFNHAISWVRQAPGRGLEWMGGILPMYGTANYAQKFQGRVTITADKLTNTVYMDLSRLRYEDTAVYYCARELGLSIVGATTGALDMWGKGTLVTVSSGGGGSGGGGSGGGGSAQSVLTQPPSVSAAPGQKVTISCSGSSSNIGNNYVSWYQQIPGTAPKLLIYENNKRPSGIPDRFSGSKSGASAALDITGLQTGDEADYYCGTWHSSQVVFGGGTKLTVLG | no binding | no binding | no binding | no binding | binds
I025B09 (scFv, also called I0025B09) scFv: QVHLVQSGAEVKKPGSSVKVSCRASGGSFNHAISWVRQAPGRGLEWMGGILPMYGTANYAQKFQGRVTITADKLTNTVYMDLSRLRYEDTAVYYCARELGLSIVGATTGALDMWGKGTLVTVSSGGGGSGGGGSGGGGSAQSVLTQPPSVSAAPGQKVTISCSGSSSNIGNNYVSWYQQIPGTAPKLLIYENNKRPSGIPDRFSGSKSGASATLDITGLQTGDEADYYCGTWHSSQVVFGGGTKLTVLG | no binding | no binding | no binding | no binding | binds
I003C06 (scFv) scFv: QVQLVQSGAEVKKPGSSVKVSCRASGGSFNHAISWVRQAPGRGLEWMGGILPMYGTANYAQKFQGRVTITADKLTNTVYMDLSRLRYEDTAVYYCARELGLSIVGATTGALDMWGKGTLVTVSSGGGGSGGGGSGGGGSALPVLTQPPSVSVAPGQTATLTCGGTNFGRQSVHWYQQKPGQAPVLAIYHDDVRPSGIPERLSGSKSGNTATLTISRVEAGDEAAYYCQVWDSGSDVVVFGGGTKLTVLG | no binding | no binding | no binding | no binding | binds
I030A10 (scFv) scFv: QVQLVQSGAEVKKPGSSVKVSCRASGGSFNHAISWVRQAPGRGLEWMGGILPMYGTANYAQKFQGRVTITADKLTNTVYMDLSRLRYEDTAVYYCARELGLSIVGATTGALDMWGRGTLVTVSSGGGGSGGGGSGGGGSAQAVLTQPSSVSGAPGQRVIISCTGSSSNIGPDYDVHWYQQLPGTAPKLLIYGNNNRPSGVPDRFSGSKSGTSASLAITGLQAEDEAHYYCQSYGSSLSGVVFGGGTKVTVLG | no binding | no binding | no binding | no binding | binds
I002A01-R (scFv) scFv: QVQLVQSGAEVKKPGSSVKVSCRASGGSFNRHAISWVRQAPGRGLEWMGGILPMYGTANYAQKFQGRVTITADKLTNTVYMDLSRLRYEDTAVYYCARELGLSIVGATTGALDMWGKGTLVTVSSGGGGSGGGGSGGGGSALPVLTQPPSVSVAPGQTATLTCGGTNFGRQSVHWYQQKPGQAPVLAIYHDDVRPSGIPERLSGSKSGNTATLTISRVEAGDEAAYYCQVWDSGSDVVVFGGGTKLTVLG | no binding | no binding | no binding | no binding | binds
I002A01-K (scFv) scFv: QVQLVQSGAEVKKPGSSVKVSCRASGGSFNKHAISWVRQAPGRGLEWMGGILPMYGTANYAQKFQGRVTITADKLTNTVYMDLSRLRYEDTAVYYCARELGLSIVGATTGALDMWGKGTLVTVSSGGGGSGGGGSGGGGSALPVLTQPPSVSVAPGQTATLTCGGTNFGRQSVHWYQQKPGQAPVLAIYHDDVRPSGIPERLSGSKSGNTATLTISRVEAGDEAAYYCQVWDSGSDVVVFGGGTKLTVLG | no binding | no binding | no binding | no binding | binds
I026C04-R (scFv) scFv: QVQLVQSGAEVKKPGSSVKVSCRASGGSFNRHAISWVRQAPGRGLEWMGGILPMYGTANYAQKFQGRVTITADKLTNTVYMDLSRLRYEDTAVYYCARELGLSIVGATTGALDMWGKGTLVTVSSGGGGSGGGGSGGGGSAQSVLTQPPSVSAAPGQKVTISCSGSSSNIGNNYVSWYQQIPGTAPKLLIYENNKRPSGIPDRFSGSKSGASATLDITGLQTGDEADYYCGTWHSSQVVFGGGTKLTVLG | no binding | no binding | no binding | no binding | binds
I068B04 (scFv) scFv: QVQLVQSGAEVKKPGSSVKVSCKASGGTVSSRTISWVRQAPGQGLEWMGGSLPPSGAPIYAQKFQGRVAITADALTNTAFMELRSLKSDDTAVYYCARDQGRYLDLWGRGTLVTVSSGGGGSGGGGSGGGGSALPVLTQPPSASATPGQRVTISCSGSSSNIGSNYVYWYQQLPGTAPKVLIYRNNQRPSGVPDRFSGSRSGTSASLAISGLRSEDEADYYCATWDDSLSGPVFGGGTKVTVLG | no binding | no binding | no binding | no binding | binds
I065D08 (scFv) scFv: GVQLVQSGAEVKKPGASVKVSCKASGYTFTSYGISWVRQAPGQGLEWMGWISAYNGNTNYAQKLQGRVTMTTDTSTSTAYMELRSLRSDDTAVYYCARTPSSVYDLLTGYYHYFYSYMDVWGRGTMVTVSSGGGGSGGGGSGGGGSQSVLTQPASVSGSPGQSITISCTGTSSDVGGYNYVSWYQQHPGEAPKLMIYEGSKRPSGVSNRFSGSKSGNTASLTISGLQAEDEADYYCSSYTTRSTRVFGGGTKLTVLG | no binding | no binding | no binding | no binding | binds
I065F08 (scFv) scFv: QVQLQQSGAEVKKPGSSVKVSCKASGDTFSSFGISWVRQVPGQGLEWMGAIIPKFDIVTYAEEFKGRVTISADKLTNTAYMEVKSLRSEDTAVYYCTREKSAAGYFDYWGKGTLVTVSSGGGGSGGGGSGGGGSDIVMTQSPSTLSASVGDRVTITCRASQGISSWLAWYQQKPGRAPKVLIYKASTLESGVPSRFSGSGSGTDFTLTISSLQPEDFATYYCQQSYSTPWTFGQGTKLEIKR | no binding | no binding | no binding | no binding | binds
I067B10 (scFv) scFv: QMQLVQSGAEVKKPGASVKVSCKASGYTFTSYYMHWVRQAPGQGLEWMGWINAGNSNTKYSQKFQGRVTITSDTSASTAYMELSGLRSEDTAVYYCARDRGAPNYDILTGYYAPAQGVAFDIWGKGTLATVSSGGGGSGGGGSGGGGSQSVLTQPPSVSAAPGQKVTISCSGSTSNIGNNYVSWYQQHPGKAPKLMIYDVSKRPSGVPDRFSGSKSGNSASLDISGLQSEDEADYYCAAWDDSLSEFLFGTGTKLTVLG | no binding | no binding | no binding | no binding | binds
I073F04 (scFv) scFv: QVQLQQSGAEVKKPGSSVKVSCKASGGTFRSYAFSWVRQAPGQGLEWMGYIVPVFGTATYAQNFQGRVTITADELTTTAFMELSSLTSEDTAVYYCARSLATRPLGMDVWGRGTTVTVSSGGGGSGGGGSGGGGSQSVLTQPASVSGSPGQSITISCTGTSSDVGGYNYVSWYQQHPGKAPKLMIYEGSKRPSGVSNRFSGSKSGNTASLTISGLQAEDEADYYCSSYTTRSTRVFGGGTKLTVLG | no binding | no binding | no binding | no binding | binds
